Laboratory results as given in publication PMC6804253, “Predicting and Experimentally Validating Hot-Spot Residues at Protein–Protein Interfaces” (ACS Chemical Biology, 2019).

Tests used:
[1] = tested on: PPIs of the SKEMPI data set (by PDBID); details: single mutation to alanine, sheet sortedByGroup, r_group FAMILYVW; ref SKEMPI; cited from earlier work
[2] = tested on: PPIs of the SKEMPI data set (by PDBID); experiment: SKEMPI experimental ΔΔG, single mutations to alanine; format: binding; details: class of the SKEMPI experimental ΔΔG

Molecule	sk_ddG_kJ (SKEMPI experimental ΔΔG) [1]	sk_class [2]
1DAN IT22A (protein, UniProt P13726 33-251, looked up, variant I22A, extracellular domain) extracellular domain: SGTTNTVAAYNLTWKSTNFKTALEWEPKPVNQVYTVQISTKSGDWKSKCFYTTDTECDLTDEIVKDVKQTYLARVFSYPAGNVESTGSAGEPLYENSPEFTPYLETNLGQPTIQSFEQVGTKVNVTVEDERTLVRRNNTFLSLRDVFGKDLIYTLYYWKSSSSGKKTAKTNTNEFLIDVDKGENYCFSVQAVIPSRTVNRKSTDSPVECMGQEKGEFRE	2.72 kJ	Neutral (neutral (little effect) 4.184 kJ/mol < ΔΔG > −4.184 kJ/mol)
1DAN VT33A (protein, UniProt P13726 33-251, looked up, variant V33A, extracellular domain) extracellular domain: SGTTNTVAAYNLTWKSTNFKTILEWEPKPVNQAYTVQISTKSGDWKSKCFYTTDTECDLTDEIVKDVKQTYLARVFSYPAGNVESTGSAGEPLYENSPEFTPYLETNLGQPTIQSFEQVGTKVNVTVEDERTLVRRNNTFLSLRDVFGKDLIYTLYYWKSSSSGKKTAKTNTNEFLIDVDKGENYCFSVQAVIPSRTVNRKSTDSPVECMGQEKGEFRE	-0.79 kJ	Neutral (neutral (little effect) 4.184 kJ/mol < ΔΔG > −4.184 kJ/mol)
1DAN VT36A (protein, UniProt P13726 33-251, looked up, variant V36A, extracellular domain) extracellular domain: SGTTNTVAAYNLTWKSTNFKTILEWEPKPVNQVYTAQISTKSGDWKSKCFYTTDTECDLTDEIVKDVKQTYLARVFSYPAGNVESTGSAGEPLYENSPEFTPYLETNLGQPTIQSFEQVGTKVNVTVEDERTLVRRNNTFLSLRDVFGKDLIYTLYYWKSSSSGKKTAKTNTNEFLIDVDKGENYCFSVQAVIPSRTVNRKSTDSPVECMGQEKGEFRE	-0.54 kJ	Neutral (neutral (little effect) 4.184 kJ/mol < ΔΔG > −4.184 kJ/mol)
1DAN WT45A (protein, UniProt P13726 33-251, looked up, variant W45A, extracellular domain) extracellular domain: SGTTNTVAAYNLTWKSTNFKTILEWEPKPVNQVYTVQISTKSGDAKSKCFYTTDTECDLTDEIVKDVKQTYLARVFSYPAGNVESTGSAGEPLYENSPEFTPYLETNLGQPTIQSFEQVGTKVNVTVEDERTLVRRNNTFLSLRDVFGKDLIYTLYYWKSSSSGKKTAKTNTNEFLIDVDKGENYCFSVQAVIPSRTVNRKSTDSPVECMGQEKGEFRE	6.53 kJ	Positive (positive (a hot residue) ΔΔG ≥ 4.184 kJ/mol)
1DAN FT50A (protein, UniProt P13726 33-251, looked up, variant F50A, extracellular domain) extracellular domain: SGTTNTVAAYNLTWKSTNFKTILEWEPKPVNQVYTVQISTKSGDWKSKCAYTTDTECDLTDEIVKDVKQTYLARVFSYPAGNVESTGSAGEPLYENSPEFTPYLETNLGQPTIQSFEQVGTKVNVTVEDERTLVRRNNTFLSLRDVFGKDLIYTLYYWKSSSSGKKTAKTNTNEFLIDVDKGENYCFSVQAVIPSRTVNRKSTDSPVECMGQEKGEFRE	1.84 kJ	Neutral (neutral (little effect) 4.184 kJ/mol < ΔΔG > −4.184 kJ/mol)
1DAN YT51A (protein, UniProt P13726 33-251, looked up, variant Y51A, extracellular domain) extracellular domain: SGTTNTVAAYNLTWKSTNFKTILEWEPKPVNQVYTVQISTKSGDWKSKCFATTDTECDLTDEIVKDVKQTYLARVFSYPAGNVESTGSAGEPLYENSPEFTPYLETNLGQPTIQSFEQVGTKVNVTVEDERTLVRRNNTFLSLRDVFGKDLIYTLYYWKSSSSGKKTAKTNTNEFLIDVDKGENYCFSVQAVIPSRTVNRKSTDSPVECMGQEKGEFRE	-0.54 kJ	Neutral (neutral (little effect) 4.184 kJ/mol < ΔΔG > −4.184 kJ/mol)
1DAN LT59A (protein, UniProt P13726 33-295, looked up, variant L59A) Tissue factor: SGTTNTVAAYNLTWKSTNFKTILEWEPKPVNQVYTVQISTKSGDWKSKCFYTTDTECDATDEIVKDVKQTYLARVFSYPAGNVESTGSAGEPLYENSPEFTPYLETNLGQPTIQSFEQVGTKVNVTVEDERTLVRRNNTFLSLRDVFGKDLIYTLYYWKSSSSGKKTAKTNTNEFLIDVDKGENYCFSVQAVIPSRTVNRKSTDSPVECMGQEKGEFREIFYIIGAVVFVVIILVIILAISLHKCRKAGVGQSWKENSPLNVS	0.00 kJ	Neutral (neutral (little effect) 4.184 kJ/mol < ΔΔG > −4.184 kJ/mol)
1DAN VT64A (protein, UniProt P13726 33-251, looked up, variant V64A, extracellular domain) extracellular domain: SGTTNTVAAYNLTWKSTNFKTILEWEPKPVNQVYTVQISTKSGDWKSKCFYTTDTECDLTDEIAKDVKQTYLARVFSYPAGNVESTGSAGEPLYENSPEFTPYLETNLGQPTIQSFEQVGTKVNVTVEDERTLVRRNNTFLSLRDVFGKDLIYTLYYWKSSSSGKKTAKTNTNEFLIDVDKGENYCFSVQAVIPSRTVNRKSTDSPVECMGQEKGEFRE	0.00 kJ	Neutral (neutral (little effect) 4.184 kJ/mol < ΔΔG > −4.184 kJ/mol)
1DAN LT72A (protein, UniProt P13726 33-251, looked up, variant L72A, extracellular domain) extracellular domain: SGTTNTVAAYNLTWKSTNFKTILEWEPKPVNQVYTVQISTKSGDWKSKCFYTTDTECDLTDEIVKDVKQTYAARVFSYPAGNVESTGSAGEPLYENSPEFTPYLETNLGQPTIQSFEQVGTKVNVTVEDERTLVRRNNTFLSLRDVFGKDLIYTLYYWKSSSSGKKTAKTNTNEFLIDVDKGENYCFSVQAVIPSRTVNRKSTDSPVECMGQEKGEFRE	-0.25 kJ	Neutral (neutral (little effect) 4.184 kJ/mol < ΔΔG > −4.184 kJ/mol)
1DAN FT76A (protein, UniProt P13726 33-251, looked up, variant F76A, extracellular domain) extracellular domain: SGTTNTVAAYNLTWKSTNFKTILEWEPKPVNQVYTVQISTKSGDWKSKCFYTTDTECDLTDEIVKDVKQTYLARVASYPAGNVESTGSAGEPLYENSPEFTPYLETNLGQPTIQSFEQVGTKVNVTVEDERTLVRRNNTFLSLRDVFGKDLIYTLYYWKSSSSGKKTAKTNTNEFLIDVDKGENYCFSVQAVIPSRTVNRKSTDSPVECMGQEKGEFRE	4.81 kJ	Positive (positive (a hot residue) ΔΔG ≥ 4.184 kJ/mol)
1DAN YT78A (protein, UniProt P13726 33-251, looked up, variant Y78A, extracellular domain) extracellular domain: SGTTNTVAAYNLTWKSTNFKTILEWEPKPVNQVYTVQISTKSGDWKSKCFYTTDTECDLTDEIVKDVKQTYLARVFSAPAGNVESTGSAGEPLYENSPEFTPYLETNLGQPTIQSFEQVGTKVNVTVEDERTLVRRNNTFLSLRDVFGKDLIYTLYYWKSSSSGKKTAKTNTNEFLIDVDKGENYCFSVQAVIPSRTVNRKSTDSPVECMGQEKGEFRE	2.72 kJ	Neutral (neutral (little effect) 4.184 kJ/mol < ΔΔG > −4.184 kJ/mol)
1DAN YU94A (protein, UniProt P13726 33-251, looked up, variant Y94A, extracellular domain) extracellular domain: SGTTNTVAAYNLTWKSTNFKTILEWEPKPVNQVYTVQISTKSGDWKSKCFYTTDTECDLTDEIVKDVKQTYLARVFSYPAGNVESTGSAGEPLAENSPEFTPYLETNLGQPTIQSFEQVGTKVNVTVEDERTLVRRNNTFLSLRDVFGKDLIYTLYYWKSSSSGKKTAKTNTNEFLIDVDKGENYCFSVQAVIPSRTVNRKSTDSPVECMGQEKGEFRE	4.31 kJ	Positive (positive (a hot residue) ΔΔG ≥ 4.184 kJ/mol)
